Source: patent US20200223915A1 (OSAKA UNIVERSITY, published 2020)

How the values were obtained:
Assay in all cases: FACS on Claudin-expressing cells
[1] = biological target: T1, wild-type mouse Claudin 3 protein (mouse, UniProt Q9Z0G9 1-219)
T1 construct: Expressed on cells by retrovirus; Wording leaves open whether the entry is the protein or the DNA; also called mCLDN3
T1 sequence: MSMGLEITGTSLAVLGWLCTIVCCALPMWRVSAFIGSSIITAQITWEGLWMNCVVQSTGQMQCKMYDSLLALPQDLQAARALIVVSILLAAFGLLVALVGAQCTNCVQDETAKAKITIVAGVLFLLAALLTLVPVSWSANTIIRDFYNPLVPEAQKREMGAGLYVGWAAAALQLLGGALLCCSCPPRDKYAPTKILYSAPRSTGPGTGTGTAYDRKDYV
Description: (§1) The cells were washed three times with 0.2% BSA-TBS, and then mixed with 100 μL of a secondary antibody solution (FITC conjugated goat anti-mouse IgG+IgM in 1% BSA-PBS (1:400)), followed by a reaction at 4° C. for 1 hour. The cells were washed with 0.2% BSA-TBS, and FACS analysis (FACS caliber, BD Bioscience) was performed.

[2] = biological target: T2, wild-type mouse Claudin 1 protein (mouse, UniProt O88551 1-211)
T2 construct: Expressed on cells by retrovirus; Wording leaves open whether the entry is the protein or the DNA; also called mCLDN1
T2 sequence: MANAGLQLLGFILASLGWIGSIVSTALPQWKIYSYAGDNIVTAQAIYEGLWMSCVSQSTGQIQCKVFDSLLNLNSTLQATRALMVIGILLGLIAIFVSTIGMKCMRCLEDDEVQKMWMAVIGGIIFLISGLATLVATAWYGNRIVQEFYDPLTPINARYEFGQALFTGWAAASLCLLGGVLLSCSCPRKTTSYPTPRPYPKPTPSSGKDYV
Description: as §1

[3] = biological target: T3, wild-type human Claudin 7 protein (human, UniProt O95471 1-211)
T3 construct: Expressed on cells by retrovirus; Wording leaves open whether the entry is the protein or the DNA; also called hCLDN7
T3 sequence: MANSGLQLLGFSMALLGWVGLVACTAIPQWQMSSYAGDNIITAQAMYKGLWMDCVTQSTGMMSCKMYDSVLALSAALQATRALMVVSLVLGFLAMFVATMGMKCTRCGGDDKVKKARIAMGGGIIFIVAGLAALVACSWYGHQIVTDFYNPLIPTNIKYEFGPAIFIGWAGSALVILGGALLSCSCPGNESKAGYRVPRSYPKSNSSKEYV
Description: as §1

[4] = biological target: T4, wild-type mouse Claudin 5 protein (mouse, UniProt O54942 1-218)
T4 construct: also called mCLDN5
T4 sequence: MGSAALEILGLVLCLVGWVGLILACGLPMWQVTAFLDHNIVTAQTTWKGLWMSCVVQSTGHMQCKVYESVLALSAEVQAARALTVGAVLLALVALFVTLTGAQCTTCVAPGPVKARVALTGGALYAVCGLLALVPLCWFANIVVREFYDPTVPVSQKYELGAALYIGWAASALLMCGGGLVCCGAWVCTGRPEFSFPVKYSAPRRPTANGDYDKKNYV
Description: as §1

[5] = biological target: T5, wild-type human Claudin 3 protein (human, UniProt O15551 1-220)
T5 construct: Expressed on cells by retrovirus; Wording leaves open whether the entry is the protein or the DNA; also called hCLDN3
T5 sequence: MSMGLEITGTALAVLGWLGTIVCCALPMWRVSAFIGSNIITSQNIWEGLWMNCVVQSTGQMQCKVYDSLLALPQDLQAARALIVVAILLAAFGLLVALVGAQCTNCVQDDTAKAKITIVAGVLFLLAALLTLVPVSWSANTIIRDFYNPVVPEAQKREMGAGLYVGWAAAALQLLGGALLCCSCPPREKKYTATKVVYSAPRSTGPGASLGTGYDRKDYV
Description: as §1

[6] = biological target: T6, wild-type mouse Claudin 2 protein (mouse, UniProt O88552 1-230)
T6 construct: Expressed on cells by retrovirus; Wording leaves open whether the entry is the protein or the DNA; also called mCLDN2
T6 sequence: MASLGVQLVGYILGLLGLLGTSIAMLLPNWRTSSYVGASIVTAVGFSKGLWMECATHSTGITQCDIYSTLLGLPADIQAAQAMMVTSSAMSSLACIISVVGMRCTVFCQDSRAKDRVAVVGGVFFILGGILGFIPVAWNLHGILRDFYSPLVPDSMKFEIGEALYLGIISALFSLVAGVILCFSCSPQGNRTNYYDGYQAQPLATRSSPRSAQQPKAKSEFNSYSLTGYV
Description: as §1

[7] = biological target: T7, wild-type human Claudin 2 protein (human, UniProt P57739 1-230)
T7 construct: Expressed on cells by retrovirus; Wording leaves open whether the entry is the protein or the DNA; also called hCLDN2
T7 sequence: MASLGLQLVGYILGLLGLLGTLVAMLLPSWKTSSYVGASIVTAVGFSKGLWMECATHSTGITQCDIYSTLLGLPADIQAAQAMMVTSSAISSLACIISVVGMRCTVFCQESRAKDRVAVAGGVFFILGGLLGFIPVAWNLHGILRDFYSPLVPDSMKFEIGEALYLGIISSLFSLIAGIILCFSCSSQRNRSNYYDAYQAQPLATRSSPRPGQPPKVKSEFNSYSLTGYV
Description: as §1

[8] = biological target: T8, wild-type human Claudin 9 protein (human, UniProt O95484 1-217)
T8 construct: Expressed on cells by retrovirus; Wording leaves open whether the entry is the protein or the DNA; also called hCLDN9
T8 sequence: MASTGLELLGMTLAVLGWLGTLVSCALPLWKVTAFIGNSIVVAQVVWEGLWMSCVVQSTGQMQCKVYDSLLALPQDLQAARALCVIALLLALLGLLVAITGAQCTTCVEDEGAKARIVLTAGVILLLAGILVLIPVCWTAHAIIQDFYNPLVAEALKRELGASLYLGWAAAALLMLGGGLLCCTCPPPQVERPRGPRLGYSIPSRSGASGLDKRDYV
Description: as §1

[9] = biological target: T9, wild-type human Claudin 4 protein (human, UniProt O14493 1-209)
T9 construct: Expressed on cells by retrovirus; Wording leaves open whether the entry is the protein or the DNA; also called hCLDN4
T9 sequence: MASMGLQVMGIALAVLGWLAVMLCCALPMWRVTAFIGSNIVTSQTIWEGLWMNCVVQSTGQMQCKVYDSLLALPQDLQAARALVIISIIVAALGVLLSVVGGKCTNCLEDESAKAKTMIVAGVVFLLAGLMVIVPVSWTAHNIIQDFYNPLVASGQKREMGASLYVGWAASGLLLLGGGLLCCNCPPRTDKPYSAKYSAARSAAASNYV
Description: as §1

Measured: binding result

B1: antibody 2B12 (antibody, IgG2a, V domains shown)
VH: QVQLQQSGAELARPGASVKLSCKASGYTFTRFGMSWVKQRTGQGLEWIGEIYPGSGDTYYSENFKGKATLTADKSSGTAYMELRSLTSEDSAVYFCARWGIYYGNPYAMDYWGQGTSVTVSS
VL: DIVMTQAAPSVPVTPGESVSISCRSSKSLLHSNGNTYLYWFLQRPGQSPQLLIYRMSNLASGVPDRFSGSGSGTAFTLRISRVEAEDVGVYYCLQHLEYPFTFGSGTKLEIKR
notes: also called antibody A
no binding (tested: 10 µg/mL): all assays above

B2: antibody 2B1 (antibody, IgG2a, V domains shown)
VH: QVQLQQPGAELVKPGASVKLSCKASGYTFTTFWIHWVKQRPGRGLEWIGRIAPYSGGTTYNEKFKSKATLTVDRPSTTAYMQLISLTSEDSAVYYCARWDFTYGSNLDYWGQGTTLTVSS
VL: DIVMTQSQKFMSTSVGDRVSIPCKASQNVRTAVAWYQQKPGQSPKALIYLASNRHTGVPDRFTGSGSGTDFTLTISNVQSEDLADYFCLGHWDYPYTFGGGTKLEIKR
notes: also called antibody B
no binding (tested: 10 µg/mL): all assays above
